Measured values from US20220389085A1 (BIONOXX, published 2022).

T1: protein A56 of the oncolytic virus OTS-412 (vaccinia virus (OTS-412), UniProt P08714 17-315)
T1 construct: also called OTS-412-A56; protein A56 variant
T1 chain: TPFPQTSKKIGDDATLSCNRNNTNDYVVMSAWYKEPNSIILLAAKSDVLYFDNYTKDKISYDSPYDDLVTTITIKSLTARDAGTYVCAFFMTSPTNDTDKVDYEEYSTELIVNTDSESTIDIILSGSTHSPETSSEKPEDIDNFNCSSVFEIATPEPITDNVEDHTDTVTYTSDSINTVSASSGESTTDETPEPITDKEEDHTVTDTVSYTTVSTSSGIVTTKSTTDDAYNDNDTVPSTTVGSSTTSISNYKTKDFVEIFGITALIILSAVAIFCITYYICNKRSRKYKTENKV

B1: A56-01A02 (Ab01) (antibody, V domains shown)
VH: QMQLVQSGAEVKKPGSSVKVSCKASGGTFSSYAISWVRQAPGQGLEWMGGIIPIFGTANYAQKFQGRVTMTRDTSTSTVYMELSSLKSEDTAVYYCARFVFGSGTYLDSWGQGTLVTVSS
VL: not shown
B2: A56-02B01 (Ab14) (antibody, V domains shown)
VH: QVQLVQSGGGVVQPGRSLRLSCAASGFTFSNYGMHWVRQAPGKGLEWMAFIWFDGSNKFYADSVKGRFTVSRDNSKNTLFLQMNSLRAEDTAVYYCAKAAHLWGAFDIWGQGTMVTVSS
VL: DIQMTQSPDTLSLSPGERATLSCRASQSVSSYLAWYQQKPGQAPRLLIYGASNRATGIPARFSGSGSGTDFALTIGRLEPEDFAVYYCQQYATSPLSFGGGTKVEIK
B3: A56-02A02 (Ab13) (antibody, V domains shown)
VH: QMQLVESGAEVKKTGSSVKVSCKASGDTLTYRFLHWVRQAPGQAPEWMGWITPFNDNTNYAQKFQDRVTITRDRSMSTAYMELSSLRSEDTAVYYCATGGGNNYYGMEVWGQGTPITVSS
VL: SYELTQPLSLSVSPGQTASITCSGDKLGDKFTSWYQQQPGQSPVLVIYQDAKRPSGIPERFSGSNSGSTATLTISGTQSMDEADYYCQAWDSSSVVFGGGTKLTVL
B4: A56-02C07 (Ab19) (antibody, V domains shown)
VH: QVQLVESGAEVRRPGSSVKVSCKTSGVTFSGYVLSWVRQAPGHGLEWMGRIIPLIDVENYAREFQGRMKITADKSTNTVYMELNNLRSEDTAVYYCAKSVVRGLDYYYYGFDVWGQGTTVTVSS
VL: SYELTQPPSLSVAPGKTARITCGGNNIGSKSVHWYQQKPGQAPRLVTYYDGNRPSGIPERFSGSNSGNTATLIISRVEAGDEADYYCQVWDSSSDQGVFGTGTKVTVL
B5: A56-02C06 (Ab18) (antibody, V domains shown)
VH: QVQLVESGGGLVQPGKSLRLSCAASGFTFSTYGMTWVRQAPGKGLEWVSGISGGGSSTNYADSVKGRFIISRDNSNNTLYLQMNSLRAEDTAVYYCARWGVMLSFDYWGQGTPVTVSS
VL: DIQMTQSPSTLPASVGDRVTITCRASYSVSPWLAWYQQKPGKAPKLLIYKASTLESGVPSRFSGSGSGTEFTLTISSLQPDDFATYYCQQFNSYMMYTFGQGTKLEIK

Target: T2, protein A56 of the oncolytic virus WOTS-418 (vaccinia virus (WOTS-418, Western …, UniProt Q01218 17-314))
T2 construct: also called WOTS-418-A56; protein A56 variant
Test: flow cytometry, A549 cells treated with WOTS-418

Row | Binder | binding signal (flow cytometry, %) [%]
1 | B1 | ≥ 90
2 | B2 | ≥ 90
3 | B3 | ≥ 90
4 | B4 | ≥ 90

Target: T1, protein A56 of the oncolytic virus …
Test: flow cytometry, MCF7 cells treated with OTS-412

Row | Binder | binding signal (flow cytometry, %) [%]
5 | B1 | ≥ 80
6 | B2 | ≥ 80
7 | B3 | ≥ 80
8 | B5 | ≥ 80
9 | B4 | ≥ 80

Target: T2, protein A56 of the oncolytic virus …
Test: flow cytometry, MCF7 cells treated with WOTS-418

Row | Binder | binding signal (flow cytometry, %) [%]
10 | B1 | ≥ 80
11 | B2 | ≥ 80
12 | B3 | ≥ 80
13 | B5 | ≥ 80
14 | B4 | ≥ 80

Target: T1, protein A56 of the oncolytic virus …
Test: flow cytometry, A549 cells treated with OTS-412

Row | Binder | binding signal (flow cytometry, %) [%]
15 | B1 | ≥ 90
16 | B2 | ≥ 90
17 | B3 | ≥ 90
18 | B4 | ≥ 90

Target: T2, protein A56 of the oncolytic virus …
Test: flow cytometry, PC3 cells treated with WOTS-418 (overlay, FIG. 75)

Row | Binder | binding signal (flow cytometry, %) [%]
19 | B1 | ≥ 60
20 | B2 | ≥ 60
21 | B3 | ≥ 60
22 | B5 | ≥ 60
23 | B4 | ≥ 60

Target: T1, protein A56 of the oncolytic virus …
Test: flow cytometry, PC3 cells treated with OTS-412 (overlay, FIG. 74)

Row | Binder | binding signal (flow cytometry, %) [%]
24 | B1 | ≥ 60
25 | B2 | ≥ 60
26 | B3 | ≥ 60
27 | B5 | ≥ 60
28 | B4 | ≥ 60
